Positions count from the first letter of the chain named.

Drawing on patent publication US20260365719 (published 2026), this text covers IC50 for 13 molecules.

Sequences and labels used below:
B1: Bebtelovimab (antibody, V domains shown)
VH: QITLKESGPTLVKPTQTLTLTCTFSGFSLSISGVGVGWLRQPPGKALEWLALIYWDDDKRYSPSLKSRLTISKDTSKNQVVLKMTNIDPVDTATYYCAHHSISTIFDHWGQGTLVTVSS
VL: QSALTQPASVSGSPGQSITISCTATSSDVGDYNYVSWYQQHPGKAPKLMIFEVSDRPSGISNRFSGSKSGNTASLTISGLQAEDEADYYCSSYTTSSAVFGGGTKLTVLG
B2: 6R9A-A2 (antibody, V domains shown)
VH: EVQLVESGGGLVQPGGSLRLSCTASGFSFPHQAMTWVRQAPGKGLEWIGVIASNADTYYASWAKGRFTISRDNSKNTLYLQMNSLRAEDTAVYYCARHPGSAGYGYQYYYAMDPWGQGTLVTVSS
VL: DIQMTQSPSSLSASVGDRVTITCQASEEVHYGINWYQQKPGKAPKLLIYGANYRVDGVPSRFSGSGSGTDYTLTISSLQPEDFATYYCQQGYNVPTDFGGGTKVEIKR
B3: 6R8A-A2 (antibody, V domains shown)
VH: B2 VH with T23K, F27Y, F29L, P30N, H31K, M34L
VL: B2 VL
B4: 6R8C-D9 (antibody, V domains shown)
VH: B2 VH with T23K, S28T, P30S, H31R, M34L
VL: B2 VL
B5: 6R9E-A8 (antibody, V domains shown)
VH: B2 VH with T23K, F27S, S28T, F29I, P30S, M34V
VL: B2 VL
B6: 6R8A-F2 (antibody, V domains shown)
VH: B2 VH with T23K, F27Y, F29L, P30S, H31S, M34L
VL: B2 VL with E28K, H30Y, I33V, A51T, V55L, Y71S, T96N, D97A
B7: 6R8C-D10 (antibody, V domains shown)
VH: B2 VH with F27Y, F29I, P30S, M34V
VL: B2 VL
B8: 6R9B-B11 (antibody, V domains shown)
VH: B2 VH with T23K, S28T, P30S, H31R, M34L
VL: B2 VL with E27Q, E28A, V29I, H30K, G32A, V55G, D56P, N93I, T96I, D97T
B9: 6R8C-F10 (antibody, V domains shown)
VH: B2 VH with T23K, S28T, P30S, H31R, M34L
VL: B2 VL with Q24K, E28D, V29I, H30R, I33L, T96N, D97F
B10: 6R8C-G8 (antibody, V domains shown)
VH: B2 VH with P14L, T23K, F27Y, F29L, P30A, H31P
VL: B2 VL
B11: 6R9B-E9 (antibody, V domains shown)
VH: B2 VH with T23K, S28T, P30S, H31R, M34L
VL: B2 VL with E28N, V29I, H30R, G32A, I33V, N93R, P95Q, T96I, D97L
B12: 6R8A-E1 (antibody, V domains shown)
VH: B2 VH with T23K, F27Y, F29L, P30A, H31P
VL: B2 VL with E28N, V29I, H30R, G32A
B13: 6R8A-E11 (antibody, V domains shown)
VH: B2 VH with T23K, S28T, P30S, H31R, M34L
VL: B2 VL with E28N, V29I, H30R, G32A

This experiment has as its target SARS-CoV-2 spike trimer (Wuhan) (SARS-CoV-2, UniProt P0DTC2). Kind of experiment: competition.
By IC50 is commonly meant the concentration that gives 50% inhibition. Lower therefore signals inhibition by little substance. B1 registered an IC50 of 0.00899 µg/mL.
Then B2, with 0.014 µg/mL.
Then B3, with 0.0106 µg/mL.
Under B4 stands 0.0203 µg/mL; under B5, 0.0274 µg/mL.
As for B6, the IC50 stood at 0.0169 µg/mL.
Under B7 stands 0.0098 µg/mL.
In turn, B8 gave an IC50 of 0.015 µg/mL.
B9: the IC50 turned out to be 0.0145 µg/mL.
Under B10 stands 0.0124 µg/mL; under B11, 0.0185 µg/mL; under B12, 0.0122 µg/mL.
Under B13 stands 0.0116 µg/mL.
